Mean luminescence intensity (Gli-luciferase reporter, NIH3T3 cells) (luminescence intensity) data for 1 substance are collected here from patent publication US20260242417A1.

In this assay the target is Patched.

In turn, “Recombinant mouse Sonic HedgeHog (mShh) (from UniProt Q62226) (ligand)” came in with a Mean luminescence intensity (Gli-luciferase reporter, NIH3T3 cells) (luminescence intensity) of 6460.
